Reference: the Human Domainome abundance scans (Beltran et al. 2025)
± gives the uncertainty stated by the source.

B1: Intersectin-1, residues 909 to 971; numbered along this chain, Q15811 (parent)
chain: QGEKVEGLQAQALYPWRAKKDNHLNFNKNDVITVLEQQDMWWFGEVQGQKGWFPKSYVKLISG

Variants of: B1
Test: abundance fitness (aPCA) (normalised: wild type 0, dead -1); higher = more abundant; growth selection in yeast, the domain comes from the species named
Conditions: Homo sapiens

| Variant | abundance fitness |
| --- | --- |
| D21M | -0.434 ± 0.2 |
| D21L | -0.012 ± 0.063 |
| D21R | -0.125 ± 0.056 |
| D21P | -0.005 ± 0.057 |
| D21T | -0.03 ± 0.1 |
| D21E | -0.096 ± 0.12 |
| D21S | -0.071 ± 0.05 |
| W42F | -0.057 ± 0.17 |
| W42R | -0.767 ± 0.093 |
| W42V | -0.411 ± 0.07 |
| W42P | -0.658 ± 0.14 |
| W42Y | 0.031 ± 0.15 |
| W42L | -0.088 ± 0.066 |
| W42E | -0.814 ± 0.12 |
| W42M | -0.192 ± 0.13 |
| S62L | -0.084 ± 0.16 |
| S62F | -0.63 ± 0.23 |
| S62W | -0.075 ± 0.35 |
| S62K | -0.158 ± 0.28 |
| S62D | -0.041 ± 0.22 |
| S62N | -0.151 ± 0.22 |
| S62E | -0.398 ± 0.38 |
| A10R | -0.807 ± 0.17 |
| A10T | -0.746 ± 0.24 |

| Variant | abundance fitness |
| --- | --- |
| A10W | -0.183 ± 0.14 |
| A10L | -0.272 ± 0.15 |
| A10E | -0.821 ± 0.29 |
| A10G | -0.212 ± 0.07 |
| A10K | -0.152 ± 0.16 |
| A10V | 0.095 ± 0.093 |
| I61V | 0.095 ± 0.085 |
| I61Y | -0.223 ± 0.27 |
| I61R | -0.155 ± 0.065 |
| I61T | -0.137 ± 0.26 |
| I61H | -0.438 ± 0.2 |
| V34G | -0.455 ± 0.087 |
| H23R | -0.254 ± 0.11 |
| H23T | -0.207 ± 0.14 |
| H23S | -0.316 ± 0.14 |
| H23F | -0.123 ± 0.26 |
| H23A | -0.245 ± 0.091 |
| F53S | -0.932 ± 0.18 |
| F53G | -0.569 ± 0.29 |
| E45C | -0.117 ± 0.3 |
| E45A | -0.245 ± 0.12 |
| E45H | 0.089 ± 0.21 |
| E45G | -0.263 ± 0.11 |
| K20L | -0.176 ± 0.041 |

| Variant | abundance fitness |
| --- | --- |
| K20M | -0.06 ± 0.072 |
| K20N | 0.053 ± 0.054 |
| K20V | -0.117 ± 0.043 |
| L24E | -0.591 ± 0.11 |
| L24K | -1.14 ± 0.33 |
| L24P | -0.383 ± 0.2 |
| L24I | -0.359 ± 0.27 |
| L24W | -0.778 ± 0.16 |
| L24T | -0.694 ± 0.15 |
| K50F | -0.208 ± 0.23 |
| K50L | -0.383 ± 0.14 |
| K50T | -0.108 ± 0.15 |
| P54M | -0.25 ± 0.11 |
| P54L | -0.215 ± 0.11 |
| P54K | -0.354 ± 0.22 |
| K55C | -0.16 ± 0.21 |
| K55L | -0.24 ± 0.36 |
| K55N | -0.054 ± 0.26 |
| I32F | -0.423 ± 0.27 |
| I32R | -0.766 ± 0.075 |
| I32T | -0.97 ± 0.18 |
| I32D | -0.568 ± 0.19 |
| I32L | -0.23 ± 0.062 |
| I32G | -0.658 ± 0.064 |

| Variant | abundance fitness |
| --- | --- |
| I32Q | -1 ± 0.2 |
| W16S | -0.053 ± 0.1 |
| W16I | 0.126 ± 0.2 |
| W16L | -0.046 ± 0.089 |
| W16V | -0.357 ± 0.08 |
| W16E | -0.888 ± 0.44 |
| Q9H | 0.011 ± 0.27 |
| Q9E | 0.008 ± 0.12 |
| Q9S | -0.083 ± 0.098 |
| Q9F | -0.159 ± 0.2 |
| Q9W | -0.109 ± 0.097 |
| K28M | -0.208 ± 0.19 |
| K28Q | -0.197 ± 0.41 |
| K28I | -0.649 ± 0.42 |
| K28E | -0.173 ± 0.21 |
| Q11C | -0.459 ± 0.21 |
| Q11M | -0.119 ± 0.14 |
| Q11L | -0.247 ± 0.098 |
| Q11G | -0.498 ± 0.093 |
| Q11A | -0.239 ± 0.094 |
| Q11R | -0.067 ± 0.075 |
| Y57D | -0.399 ± 0.24 |
| Y57Q | -0.14 ± 0.12 |
| Y57K | 0.081 ± 0.23 |

| Variant | abundance fitness |
| --- | --- |
| Y57H | -0.238 ± 0.18 |
| Y57F | 0.279 ± 0.34 |
| Y57G | -0.572 ± 0.13 |
| Y57C | -0.153 ± 0.14 |
| Y57S | -0.308 ± 0.14 |
| E3F | -0.169 ± 0.29 |
| E3L | -0.268 ± 0.22 |
| E3Q | 0.026 ± 0.24 |
| E3N | 0.02 ± 0.17 |
| E3R | -0.074 ± 0.11 |
| E3A | -0.293 ± 0.13 |
| G44W | -1 ± 0.27 |
| G44D | -0.999 ± 0.4 |
| G44A | -1.03 ± 0.34 |
| A18W | -0.362 ± 0.1 |
| A18C | -0.189 ± 0.07 |
| A18L | -0.274 ± 0.065 |
| A18S | -0.058 ± 0.047 |
| A18Q | -0.494 ± 0.15 |
| A18Y | -0.365 ± 0.073 |
| N22S | 0.036 ± 0.11 |
| N22W | -0.172 ± 0.14 |
| N22V | -0.313 ± 0.11 |
| N22M | -0.4 ± 0.18 |

| Variant | abundance fitness |
| --- | --- |
| N22K | 0.022 ± 0.12 |
| G51D | -0.793 ± 0.4 |
| G51V | -0.97 ± 0.27 |
| G2M | 0.113 ± 0.29 |
| G2R | -0.38 ± 0.14 |
| G2D | -0.265 ± 0.086 |
| G2T | -0.051 ± 0.2 |
| G2K | 0.076 ± 0.28 |
| P15L | -0.338 ± 0.13 |
| P15R | -0.018 ± 0.077 |
| P15S | 0.011 ± 0.12 |
| P15C | -0.059 ± 0.18 |
| P15Y | -0.269 ± 0.22 |
| P15D | -0.156 ± 0.17 |
| V31L | -0.022 ± 0.028 |
| V31G | -0.476 ± 0.038 |
| V31D | -0.484 ± 0.075 |
| V31I | 0.011 ± 0.035 |
| V31Y | -0.058 ± 0.036 |
| V31E | -0.185 ± 0.041 |
| E6P | 0.074 ± 0.12 |
| E6K | -0.306 ± 0.27 |
| E6D | -0.221 ± 0.26 |
| E6M | -0.069 ± 0.25 |

| Variant | abundance fitness |
| --- | --- |
| E6V | -0.122 ± 0.17 |
| E6A | -0.139 ± 0.11 |
| E6T | -0.215 ± 0.12 |
| E6N | -0.079 ± 0.19 |
| E6Y | -0.119 ± 0.24 |
| S56V | -0.099 ± 0.081 |
| S56T | -0.016 ± 0.16 |
| S56E | -0.178 ± 0.18 |
| S56L | -0.102 ± 0.092 |
| S56K | -0.251 ± 0.2 |
| V46D | -0.384 ± 0.31 |
| V46T | -0.155 ± 0.14 |
| V46M | -0.048 ± 0.11 |
| V46F | -0.101 ± 0.34 |
| V46L | 0.079 ± 0.083 |
| V46N | -0.309 ± 0.3 |
| V46Q | -0.279 ± 0.17 |
| V46W | -0.09 ± 0.13 |
| K59L | -0.331 ± 0.14 |
| K59Y | -0.378 ± 0.33 |
| K59N | -0.114 ± 0.43 |
| K59Q | -0.109 ± 0.17 |
| K59R | -0.043 ± 0.09 |
